From EP2170953B1

Legend:
[1] = target: Aβ1-42 peptide, oligomer-enriched preparation; test: ELISA assay 1, Ab 1:128 of 0.5 µg/ml
[2] = target: Aβ1-42 peptide, monomer-enriched preparation; test: ELISA assay 2, Ab 1:128 of 0.5 µg/ml
[3] = target: Aβ1-42 peptide, oligomer-enriched preparation; test: ELISA assay 2, Ab 1:128 of 0.5 µg/ml
[4] = target: Aβ1-42 peptide, monomer-enriched preparation; test: ELISA assay 3, Ab 1:128 of 0.5 µg/ml
[5] = target: Aβ1-42 peptide, oligomer-enriched preparation; test: ELISA assay 3, Ab 1:128 of 0.5 µg/ml
[6] = target: Aβ1-42 peptide, monomer-enriched preparation; test: ELISA mean of 3, Ab 1:1 of 0.5 µg/ml
[7] = target: Aβ1-42 peptide, oligomer-enriched preparation; test: ELISA mean of 3, Ab 1:1 of 0.5 µg/ml
[8] = target: Aβ1-42 peptide, monomer-enriched preparation; test: ELISA mean of 3, Ab 1:2 of 0.5 µg/ml
[9] = target: Aβ1-42 peptide, oligomer-enriched preparation; test: ELISA mean of 3, Ab 1:2 of 0.5 µg/ml
[10] = target: Aβ1-42 peptide, monomer-enriched preparation; test: ELISA mean of 3, Ab 1:4 of 0.5 µg/ml
[11] = target: Aβ1-42 peptide, oligomer-enriched preparation; test: ELISA mean of 3, Ab 1:4 of 0.5 µg/ml
[12] = target: Aβ1-42 peptide, oligomer-enriched preparation; test: ELISA mean of 3, Ab 1:8 of 0.5 µg/ml
[13] = target: Aβ1-42 peptide, monomer-enriched preparation; test: ELISA mean of 3, Ab 1:16 of 0.5 µg/ml
[14] = target: Aβ1-42 peptide, oligomer-enriched preparation; test: ELISA mean of 3, Ab 1:16 of 0.5 µg/ml
[15] = target: Aβ1-42 peptide, monomer-enriched preparation; test: ELISA mean of 3, Ab 1:32 of 0.5 µg/ml
[16] = target: Aβ1-42 peptide, oligomer-enriched preparation; test: ELISA mean of 3, Ab 1:32 of 0.5 µg/ml
[17] = target: Aβ1-42 peptide, monomer-enriched preparation; test: ELISA mean of 3, Ab 1:64 of 0.5 µg/ml
[18] = target: Aβ1-42 peptide, oligomer-enriched preparation; test: ELISA mean of 3, Ab 1:64 of 0.5 µg/ml
[19] = target: Aβ1-42 peptide, high molecular weight (HMW) proto-fibrillar (PF) oligomer enriched preparation (human); test: ELISA on coated fraction, Ab 0.5 µg/ml
Aβ1-42 peptide, high molecular weight (HMW) proto-fibrillar (PF) oligomer enriched preparation (human), sequence (peptide, as listed by the source, form in doubt): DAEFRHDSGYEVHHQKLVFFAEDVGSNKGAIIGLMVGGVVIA

[20] = target: Aβ1-42 peptide, low molecular weight (LMW) monomer preparation (human); test: ELISA on coated fraction, Ab 0.5 µg/ml
Aβ1-42 peptide, low molecular weight (LMW) monomer preparation (human), sequence (peptide, as listed by the source, form in doubt): as above

[21] = target: Aβ1-42 peptide, monomer-enriched preparation; test: ELISA mean of 3, Ab 1:128 of 0.5 µg/ml
[22] = target: Aβ1-42 peptide, oligomer-enriched preparation; test: ELISA mean of 3, Ab 1:128 of 0.5 µg/ml
[23] = target: Aβ1-42 peptide, high molecular weight (HMW) proto-fibrillar (PF) oligomer enriched preparation (human); test: ELISA on coated fraction, Ab 0.25 µg/ml
[24] = target: Aβ1-42 peptide, low molecular weight (LMW) monomer preparation (human); test: ELISA on coated fraction, Ab 0.25 µg/ml
[25] = target: Aβ1-42 peptide, high molecular weight (HMW) proto-fibrillar (PF) oligomer enriched preparation (human); test: ELISA on coated fraction, Ab 0.125 µg/ml
[26] = target: Aβ1-42 peptide, low molecular weight (LMW) monomer preparation (human); test: ELISA on coated fraction, Ab 0.125 µg/ml
[27] = target: Aβ1-42 peptide, high molecular weight (HMW) proto-fibrillar (PF) oligomer enriched preparation (human); test: ELISA on coated fraction, Ab 0.0078 µg/ml
[28] = target: Aβ1-42 peptide, low molecular weight (LMW) monomer preparation (human); test: ELISA on coated fraction, Ab 0.0078 µg/ml
[29] = target: Aβ1-42 peptide, high molecular weight (HMW) proto-fibrillar (PF) oligomer enriched preparation (human); test: ELISA on coated fraction, Ab 0.0156 µg/ml
[30] = target: Aβ1-42 peptide, low molecular weight (LMW) monomer preparation (human); test: ELISA on coated fraction, Ab 0.0156 µg/ml
[31] = target: Aβ1-42 peptide, high molecular weight (HMW) proto-fibrillar (PF) oligomer enriched preparation (human); test: ELISA on coated fraction, Ab 0.0313 µg/ml
[32] = target: Aβ1-42 peptide, low molecular weight (LMW) monomer preparation (human); test: ELISA on coated fraction, Ab 0.0313 µg/ml
[33] = target: Aβ1-42 peptide, high molecular weight (HMW) proto-fibrillar (PF) oligomer enriched preparation (human); test: ELISA on coated fraction, Ab 0.0625 µg/ml
[34] = target: Aβ1-42 peptide, low molecular weight (LMW) monomer preparation (human); test: ELISA on coated fraction, Ab 0.0625 µg/ml
[35] = target: Aβ1-42 peptide, high molecular weight (HMW) proto-fibrillar (PF) oligomer enriched preparation (human); test: ELISA, Ab 1 µg/ml; proto-fibrils against LMW monomers (given without sign)
[36] = target: Aβ1-42 peptide, high molecular weight (HMW) proto-fibrillar (PF) oligomer enriched preparation (human); test: ELISA, Ab 0.5 µg/ml; proto-fibrils against LMW monomers (given without sign)
[37] = target: Aβ1-42 peptide, high molecular weight (HMW) proto-fibrillar (PF) oligomer enriched preparation (human); test: ELISA, Ab 0.25 µg/ml; proto-fibrils against LMW monomers (given without sign)
[38] = target: Aβ1-42 peptide, high molecular weight (HMW) proto-fibrillar (PF) oligomer enriched preparation (human); test: ELISA, Ab 0.125 µg/ml; proto-fibrils against LMW monomers (given without sign)
[39] = target: Aβ1-42 peptide, high molecular weight (HMW) proto-fibrillar (PF) oligomer enriched preparation (human); test: ELISA, Ab 0.0078 µg/ml; proto-fibrils against LMW monomers (given without sign)
[40] = target: Aβ1-42 peptide, high molecular weight (HMW) proto-fibrillar (PF) oligomer enriched preparation (human); test: ELISA, Ab 0.0156 µg/ml; proto-fibrils against LMW monomers (given without sign)
[41] = target: Aβ1-42 peptide, high molecular weight (HMW) proto-fibrillar (PF) oligomer enriched preparation (human); test: ELISA, Ab 0.0313 µg/ml; proto-fibrils against LMW monomers (given without sign)
[42] = target: Aβ1-42 peptide, high molecular weight (HMW) proto-fibrillar (PF) oligomer enriched preparation (human); test: ELISA, Ab 0.0625 µg/ml; proto-fibrils against LMW monomers (given without sign)

Aβ1-42 peptide, oligomer-enriched preparation, sequence (peptide, as listed by the source, form in doubt): as above
Aβ1-42 peptide, monomer-enriched preparation, sequence (peptide, as listed by the source, form in doubt): as above

O.D. [1]: 0.62 O.D. | O.D. [2]: 0.75 O.D. | O.D. [3]: 0.61 O.D. | O.D. [4]: 0.86 O.D. | O.D. [5]: 0.66 O.D. | O.D. (mean) [6]: 3.83 O.D. | O.D. (mean) [7]: 3.64 O.D. | O.D. (mean) [8]: 3.59 O.D. | O.D. (mean) [9]: 3.59 O.D. | O.D. (mean) [10]: 3.27 O.D. | O.D. (mean) [11]: 3.37 O.D. | O.D. (mean) [12]: 2.98 O.D. | O.D. (mean) [13]: 1.98 O.D. | O.D. (mean) [14]: 1.92 O.D. | O.D. (mean) [15]: 1.36 O.D. | O.D. (mean) [16]: 1.32 O.D. | O.D. (mean) [17]: 0.94 O.D. | O.D. (mean) [18]: 0.92 O.D. | O.D. [19]: 2 O.D. | O.D. [20]: 2.13 O.D. | O.D. (mean) [21]: 0.75 O.D. | O.D. (mean) [22]: 0.63 O.D. | O.D. [23]: 1.44 O.D. | O.D. [24]: 1.56 O.D. | O.D. [25]: 0.863 O.D. | O.D. [26]: 0.999 O.D. | O.D. [27]: 0.116 O.D. | O.D. [28]: 0.133 O.D. | O.D. [29]: 0.201 O.D. | O.D. [30]: 0.207 O.D. | O.D. [31]: 0.286 O.D. | O.D. [32]: 0.329 O.D. | O.D. [33]: 0.544 O.D. | O.D. [34]: 0.574 O.D. | O.D. difference [35]: 0.13 O.D. | O.D. difference [36]: 0.13 O.D. | O.D. difference [37]: 0.12 O.D. | O.D. difference [38]: 0.14 O.D. | O.D. difference [39]: 0.02 O.D. | O.D. difference [40]: 0.01 O.D. | O.D. difference [41]: 0.04 O.D. | O.D. difference [42]: 0.03 O.D.
Substance: 6E10 control antibody
